From patent publication US20220010021A1 (Sanofi, published 2022)

Target: human FGFR1c + KLB receptor complex on HEK293 iLite FGF21 reporter cells (human, UniProt P11362 22-822; Q86Z14 1-1044)
Assay: cell-based or functional assay

human FGFR1c + KLB receptor complex on HEK293 iLite FGF21 reporter cells, sequence (P11362 22-822, chain 1 of 2): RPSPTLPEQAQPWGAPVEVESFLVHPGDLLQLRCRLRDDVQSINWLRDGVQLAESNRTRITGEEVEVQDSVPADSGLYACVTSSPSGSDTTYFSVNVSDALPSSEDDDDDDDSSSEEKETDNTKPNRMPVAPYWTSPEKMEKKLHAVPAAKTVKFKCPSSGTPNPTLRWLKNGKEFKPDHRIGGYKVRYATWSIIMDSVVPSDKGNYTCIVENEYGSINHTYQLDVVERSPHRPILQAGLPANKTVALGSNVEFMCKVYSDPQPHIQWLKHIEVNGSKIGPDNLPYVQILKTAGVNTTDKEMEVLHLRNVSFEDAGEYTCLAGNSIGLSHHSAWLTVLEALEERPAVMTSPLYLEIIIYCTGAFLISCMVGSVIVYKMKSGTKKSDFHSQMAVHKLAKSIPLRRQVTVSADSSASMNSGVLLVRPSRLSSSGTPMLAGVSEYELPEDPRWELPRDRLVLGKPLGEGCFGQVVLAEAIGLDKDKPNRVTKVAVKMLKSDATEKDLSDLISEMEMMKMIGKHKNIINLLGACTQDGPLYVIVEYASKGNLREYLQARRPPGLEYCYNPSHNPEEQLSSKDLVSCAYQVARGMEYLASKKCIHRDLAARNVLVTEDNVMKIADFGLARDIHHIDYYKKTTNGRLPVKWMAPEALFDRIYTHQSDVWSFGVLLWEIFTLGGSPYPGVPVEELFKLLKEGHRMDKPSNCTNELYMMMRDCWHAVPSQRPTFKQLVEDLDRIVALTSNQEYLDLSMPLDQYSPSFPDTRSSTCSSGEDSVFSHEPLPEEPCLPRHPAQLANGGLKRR
human FGFR1c + KLB receptor complex on HEK293 iLite FGF21 reporter cells, sequence (Q86Z14 whole entry, chain 2 of 2): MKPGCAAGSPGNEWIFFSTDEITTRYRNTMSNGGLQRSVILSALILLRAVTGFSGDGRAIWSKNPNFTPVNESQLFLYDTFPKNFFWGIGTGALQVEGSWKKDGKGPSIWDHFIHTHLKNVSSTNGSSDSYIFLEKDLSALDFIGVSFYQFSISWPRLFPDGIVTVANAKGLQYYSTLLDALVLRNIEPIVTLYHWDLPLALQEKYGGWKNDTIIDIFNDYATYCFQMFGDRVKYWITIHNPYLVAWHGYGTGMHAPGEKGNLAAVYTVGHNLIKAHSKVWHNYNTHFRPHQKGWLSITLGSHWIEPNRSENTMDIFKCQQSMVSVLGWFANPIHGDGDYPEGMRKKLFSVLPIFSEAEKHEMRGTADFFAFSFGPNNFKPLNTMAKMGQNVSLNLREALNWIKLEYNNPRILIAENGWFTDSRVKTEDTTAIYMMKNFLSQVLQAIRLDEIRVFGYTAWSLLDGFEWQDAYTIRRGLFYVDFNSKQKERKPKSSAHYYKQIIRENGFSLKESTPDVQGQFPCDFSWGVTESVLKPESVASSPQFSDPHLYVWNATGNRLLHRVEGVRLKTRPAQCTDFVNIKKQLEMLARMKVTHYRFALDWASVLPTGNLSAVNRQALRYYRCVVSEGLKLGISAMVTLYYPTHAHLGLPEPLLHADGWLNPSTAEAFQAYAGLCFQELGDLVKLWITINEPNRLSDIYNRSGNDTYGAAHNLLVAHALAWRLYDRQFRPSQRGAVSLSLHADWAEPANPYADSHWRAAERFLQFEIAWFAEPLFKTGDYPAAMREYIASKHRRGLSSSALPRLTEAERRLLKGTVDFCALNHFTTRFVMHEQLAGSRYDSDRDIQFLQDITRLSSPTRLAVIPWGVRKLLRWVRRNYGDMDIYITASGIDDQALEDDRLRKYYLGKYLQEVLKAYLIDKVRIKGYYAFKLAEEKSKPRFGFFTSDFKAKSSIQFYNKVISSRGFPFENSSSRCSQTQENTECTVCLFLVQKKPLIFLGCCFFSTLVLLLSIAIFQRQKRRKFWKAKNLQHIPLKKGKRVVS

Row | Binder | EC50 | Emax
1 | Ab0181 (antibody, IgG4, V domains shown) VH: not shown VL: SYVLTQPPSVSVAPGQTARITCGGNNIGSESVHWYQQKPGQAPVLVVYYDSDRPSGIPERFSGSNSGNTATLTISRVEAGDEADYYCQVWDGNSDHVVFGGGTKLTVLG | 0.03 nM | 2110%
2 | Ab0303 (antibody, IgG4, V domains shown) VH: QVTLKESGPVLVKPTETLTLTCTVSGFSLNNARVGVSWIRQPPGKALEWLAHIFSNDEKSYSTSLKSRLTISKDTSKSQVVLTMTNMDPVDTATYYCARSVVTGGYYYEGMDVWGQGTTVTVSS VL: SYVLTQPPSVSVAPGQTARITCGGSNIGSESVHWYQQKPGQAPVLVVYDESDRPSGIPERFSGSNSGNTATLTISRVEAGDEADYYCQVWTGNSDHVVFGGGTKLTVLG | 19.2 nM | 809%
3 | Ab0304 (antibody, IgG4, V domains shown) VH: QVTLKESGPVLVKPTETLTLTCTVSGFSLNNARVGVSWIRQPPGKALEWLAHIFSNDEKSYSTSLKSRLTISKDTSKSQVVLTMTNMDPVDTATYYCARSVVTGGYYYEGMDVWGQGTTVTVSS VL: SYVLTQPPSVSVAPGQTARITCGGNNIGSESVHWYQQKPGQAPVLVVYYESDRPSGIPERFSGSNSGNTATLTISRVEAGDEADYYCQVWTGNSDHVVFGGGTKLTVLG | 11.4 nM | 686%
4 | Ab0313 (antibody, IgG4, V domains shown) VH: QVTLKESGPVLVKPTETLTLTCTVSGFSLNNARVGVSWIRQPPGKALEWLAHIFSNDEKSYSTSLKSRLTISKDTSKSQVVLTMTNMDPVDTATYYCARSVVTGGYYYEGMDVWGQGTTVTVSS VL: SYVLTQPPSVSVAPGQTARITCGGNNIGSESVHWYQQKPGQAPVLVVYDDSDRPSGIPERFSGSNSGNTATLTISRVEAGDEADYYCQVWTGESDHVVFGGGTKLTVLG | 0.04 nM | 1130%
5 | Ab0211 (antibody, IgG4, V domains shown) VH: not shown VL: SYVLTQPPSVSVAPGQTARITCGGNNIGSESVHWYQQKPGQAPVLVVYDDSDRPSGIPERFSGSNSGNTATLTISRVEAGDEADYYCQVWTGNSDHVVFGGGTKLTVLG | 12 nM | 1600%
6 | Ab0199 (antibody, IgG4, V domains shown) VH: not shown VL: SYVLTQPPSVSVAPGQTARITCGGNNIGSESVHWYQQKPGQAPVLVVYDDSDRPSGIPERFSGSNSGNTATLTISRVEAGDEADYYCQVWDGNSEHVVFGGGTKLTVLG | > 100 nM | 736%
7 | Ab0238 (antibody, IgG4, V domains shown) VH: not shown VL: SYVLTQPPSVSVAPGQTARITCGGNNIGSESVHWYQQKPGQAPVLVVYDDSDRPSGIPERFSGSNSGNTATLTISRVEAGDEADYYCQVWDGNSSHVVFGGGTKLTVLG |  | 856%
8 | Ab0302 (antibody, IgG4, V domains shown) VH: QVTLKESGPVLVKPTETLTLTCTVSGFSLNNARVGVSWIRQPPGKALEWLAHIFSNDEKSYSTSLKSRLTISKDTSKSQVVLTMTNMDPVDTATYYCARSVVTGGYYYEGMDVWGQGTTVTVSS VL: SYVLTQPPSVSVAPGQTARITCGGNNIGSESVHWYQQKPGQAPVLVVYDESDRPSGIPERFSGSNSGNTATLTISRVEAGDEADYYCQVWTGNSDHVVFGGGTKLTVLG | 3.94 nM | 795%
9 | Ab0300 (antibody, IgG4, V domains shown) VH: QVTLKESGPVLVKPTETLTLTCTVSGFSLNNARVGVSWIRQPPGKALEWLAHIFSNDEKSYSTSLKSRLTISKDTSKSQVVLTMTNMDPVDTATYYCARSVVTGGYYYEGMDVWGQGTTVTVSS VL: SYVLTQPPSVSVAPGQTARITCGGNNIGSESVHWYQQKPGQAPVLVVYYDSDRPSGIPERFSGSNSGNTATLTISRVEAGDEADYYCQVWTGNSDHVVFGGGTKLTVLG | 2.63 nM | 605%
10 | Ab0210 (antibody, IgG4, V domains shown) VH: not shown VL: SYVLTQPPSVSVAPGQTARITCGGNNIGSESVHWYQQKPGQAPVLVVYDESDRPSGIPERFSGSNSGNTATLTISRVEAGDEADYYCQVWDGNSDHVVFGGGTKLTVLG | 5.31 nM | 2390%
11 | Ab0299 (antibody, IgG4, V domains shown) VH: QVTLKESGPVLVKPTETLTLTCTVSGFSLNNARVGVSWIRQPPGKALEWLAHIFSNDEKSYSTSLKSRLTISKDTSKSQVVLTMTNMDPVDTATYYCARSVVTGGYYYEGMDVWGQGTTVTVSS VL: SYVLTQPPSVSVAPGQTARITCGGSNIGSESVHWYQQKPGQAPVLVVYDDSDRPSGIPERFSGSNSGNTATLTISRVEAGDEADYYCQVWTGNSDHVVFGGGTKLTVLG | 0.1 nM | 1240%
12 | Ab0185 (antibody, IgG4, V domains shown) VH: not shown VL: SYVLTQPPSVSVAPGQTARITCGGNNIGSESVHWYQQKPGQAPVLVVYDDSDRPSGIPERFSGSNSGNTATLTISRVEAGDEADYYCQVWDGNSEHVVFGGGTKLTVLG | 0.06 nM | 2350%
13 | Ab0386 (antibody, IgG4, V domains shown) VH: QVTLKESGPVLVKPTETLTLTCTVSGFSLNNARVGVSWIRQPPGKALEWLAHIWSNDEKSYSTSLKSRLTISKDTSKSQVVLTMTNMDPVDTATYYCARSVVTGGYYYEGMDVWGQGTTVTVSS VL: SYVLTQPPSVSVAPGQTARITCGGNNIGSESVHWYQQKPGQAPVLVVYDDSDRPSGIPERFSGSNSGNTATLTISRVEAGDEADYYCQVFDGNSSHVVFGGGTKLTVLG | > 100 nM | 
14 | Ab0224 (antibody, IgG4, V domains shown) VH: not shown VL: SYVLTQPPSVSVAPGQTARITCGGNNIGSESVHWYQQKPGQAPVLVVYADSDRPSGIPERFSGSNSGNTATLTISRVEAGDEADYYCQVWDGNSDHVVFGGGTKLTVLG | 0.05 nM | 2260%
15 | Ab0350 (antibody, IgG4, V domains shown) VH: QVTLKESGPVLVKPTETLTLTCTVSGFSLNNARVGVSWIRQPPGKALEWLAHIFSNDEKSYSTSLKSRLTISKDTSKSQVVLTMTNMDPVDTATYYCARSVVTGGYYYEGMDVWGQGTTVTVSS VL: SYVLTQPPSVSVAPGQTARITCGGSNIGSESVHWYQQKPGQAPVLVVYEESDRPSGIPERFSGSNSGNTATLTISRVEAGDEADYYCQVWAGSSDHVVFGGGTKLTVLG | 1.46 nM | 493%
16 | Ab0415 (antibody, IgG4, V domains shown) VH: QVTLKESGPVLVKPTETLTLTCTVSGFSLNNARVGVSWIRQPPGKALEWLAHIFSNDEKSYSTSLKSRLTISKDTSKSQVVLTMTNMDPVDTATYYCARSVVTGGYYYEGMDVWGQGTTVTVSS VL: SYVLTQPPSVSVAPGQTARITCGGSNIGSESVHWYQQKPGQAPVLVVYYESDRPSGIPERFSGSNSGNTATLTISRVEAGDEADYYCQVWAGESDHVVFGGGTKLTVLG | 0.3 nM | 674%

The next lines start with the values.

Row | EC50 | Emax | Binder
17 | 0.35 nM | 4000% | human FGF21 (ligand) GHPIPDSSPLLQFGGQVRQRYLYTDDAQQTEAHLEIREDGTVGGAADQSPESLLQLKALKPGVIQILGVKTSRFLCQRPDGALYGSLHFDPEACSFRELLLEDGYNVYQSEAHGLPLHLPGNKSPHRDPAPRGPARFLPLPGLPPAPPEPPGILAPQPPDVGSSDPLSMVGPSQGRSPSYAS
18 | 21.5 nM | 697% | Ab0301 (antibody, IgG4, V domains shown) VH: QVTLKESGPVLVKPTETLTLTCTVSGFSLNNARVGVSWIRQPPGKALEWLAHIFSNDEKSYSTSLKSRLTISKDTSKSQVVLTMTNMDPVDTATYYCARSVVTGGYYYEGMDVWGQGTTVTVSS VL: SYVLTQPPSVSVAPGQTARITCGGSNIGSESVHWYQQKPGQAPVLVVYYDSDRPSGIPERFSGSNSGNTATLTISRVEAGDEADYYCQVWTGNSDHVVFGGGTKLTVLG
19 | 15.3 nM | 1960% | Ab0209 (antibody, IgG4, V domains shown) VH: not shown VL: SYVLTQPPSVSVAPGQTARITCGGNNIGSESVHWYQQKPGQAPVLVVYYDSDRPSGIPERFSGSNSGNTATLTISRVEAGDEADYYCQVWDGNSDHVVFGGGTKLTVLG
20 | 22.2 nM | 1190% | Ab0220 (antibody, IgG4, V domains shown) VH: not shown VL: SYVLTQPPSVSVAPGQTARITCGGNNIGSESVHWYQQKPGQAPVLVVYDDSDRPSGIPERFSGSNSGNTATLTISRVEAGDEADYYCQVWDGNSEHVVFGGGTKLTVLG
21 | 3.67 nM | 1610% | Ab0192 (antibody, IgG4, V domains shown) VH: not shown VL: SYVLTQPPSVSVAPGQTARITCGGNNIGSESVHWYQQKPGQAPVLVVYDDSDRPSGIPERFSGSNSGNTATLTISRVEAGDEADYYCQVWDGNSEHVVFGGGTKLTVLG
22 | > 100 nM | 122% | Ab0213 (antibody, IgG4, V domains shown) VH: not shown VL: SYVLTQPPSVSVAPGQTARITCGGNNIGSESVHWYQQKPGQAPVLVVYDDSDRPSGIPERFSGSNSGNTATLTISRVEAGDEADYYCQVWDGNSEHVVFGGGTKLTVLG
23 | 0.69 nM | 2640% | Ab0206 (antibody, IgG4, V domains shown) VH: QVTLKESGPVLVKPTETLTLTCTVSGFSLNNARVGVSWIRQPPGKALEWLAHIFSNDEKSYSTSLKSRLTISKDTSKSQVVLTMTNMDPVDTATYYCARSVVTGGYYYEGMDVWGQGTTVTVSS VL: SYVLTQPPSVSVAPGQTARITCGGNNIGSESVHWYQQKPGQAPVLVVYDDSDRPSGIPERFSGSNSGNTATLTISRVEAGDEADYYCQVWDGNSEHVVFGGGTKLTVLG
24 | > 100 nM | 667% | Ab0237 (antibody, IgG4, V domains shown) VH: not shown VL: SYVLTQPPSVSVAPGQTARITCGGNNIGSESVHWYQQKPGQAPVLVVYDDSDRPSGIPERFSGSNSGNTATLTISRVEAGDEADYYCQVWDGNSAHVVFGGGTKLTVLG
25 | 0.15 nM | 932% | Ab0330 (antibody, IgG4, V domains shown) VH: QVTLKESGPVLVKPTETLTLTCTVSGFSLNNARVGVSWIRQPPGKALEWLAHIFSNDEKSYSTSLKSRLTISKDTSKSQVVLTMTNMDPVDTATYYCARSVVTGGYYYEGMDVWGQGTTVTVSS VL: SYVLTQPPSVSVAPGQTARITCGGSNIGSESVHWYQQKPGQAPVLVVYSESDRPSGIPERFSGSNSGNTATLTISRVEAGDEADYYCQVWAGESDHVVFGGGTKLTVLG
